To fix the notation:
B1: AT118i4h32 / wild-type human FLAG-AT1R (angiotensin II type 1 receptor) [human] (parent complex)
chain 1: MAEVQLVESGGGLVQPGGSLRLSCAASGYIYRRYRMGWYRQAPGKGREFVAAISGGSSTNYADSVKGRFTISRDNSKNTVYLQMNSLRAEDTAVYYCAAYRIVSDPRVYWGQGTQVTVSSLE
chain 2: MILNSSTEDGIKRIQDDCPKAGRHNYIFVMIPTLYSIIFVVGIFGNSLVVIVIYFYMKLKTVASVFLLNLALADLCFLLTLPLWAVYTAMEYRWPFGNYLCKIASASVSFNLYASVFLLTCLSIDRYLAIVHPMKSRLRRTMLVAKVTCIIIWLLAGLASLPAIIHRNVFFIENTNITVCAFHYESQNSTLPIGLGLTKNILGFLFPFLIILTSYTLIWKALKKAYEIQKNKPRNDDIFKIIMAIVLFFFFSWIPHQIFTFLDVLIQLGIIRDCRIADIVDTAMPITICIAYFNNCLNPLFYGFLGKKFKRYFLQLLKYIPPKAKSHSNLSTKMSTLSYRPSDNVSSSTKKPAPCFEVE

In this assay the parent is B1. Put plainly: flow cytometry on cells; parent: 100; read off a plot. For orientation: A flow cytometer gives signals particle by particle.
Turning to chain 1 MAEVQLVESGGGLVQPGGSLRLSCAASGYIYRRYRMGWYRQAPGKGREFVAAISGGSSTNYADSVKGRFTISRDNSKNTVYLQMNSLRAEDTAVYYCAHYRIVSDPRVYWGQGTQVTVSSLE [chain 1 A99H], the percent of parent is ~3 % of WT.
As for chain 1 MAEVQLVESGGGLVQPGGSLRLSCAASDYIYRRYRMGWYRQAPGKGREFVAAISGGSSINYADSVKGRFTISRDNSKNTVYLQMNSLRAEDTAVYYCAAYRIVSDPRVYWGQGTQVTVSSLE [chain 1 G28D, chain 1 T59I], the figure is ~99 % of WT; as for chain 1 MAEVQLVESGGGLVQPGGSLRLSCAASGYIYRRGRMGWYRQAPGKGREFVAAISGGSSTNYADSVKGRFTISRDNSKNTVYLQMNSLRAEDTAVYYCAAYRIVSDPRVYWGQGTQVTVSSLE [chain 1 Y34G], ~3 % of WT; as for chain 1 MAEVQLVESGGGLVQPGGSLRLSCAASGYIRRRYRMGWYRQAPGKGREFVAAISGGSSTNYADSVKGRFTISRDNSKNTVYLQMNSLRAEDTAVYYCAAYRIVSDPRVYWGQGTQVTVSSLE [chain 1 Y31R], ~48 % of WT.
As for chain 1 MAEVQLVESGGGLVQPGGSLRLSCAASGYIYRRYRMGWYRQAPGKGREFVAAIVGGSSTNYADSVKGRFTISRDNSKNTVYLQMNSLRAEDTAVYYCAAYRIVSDPRVYWGQGTQVTVSSLE [chain 1 S54V], the figure is ~41 % of WT; as for chain 1 MAEVQLVESGGGLVQPGGSLRLSCAASGYIYRDYRMGWYRQAPGKGREFVAAISGGSSTNYADSVKGRFTISRDNSKNTVYLQMNSLRAEDTAVYYCAAYRIVSDPRVYWGQGTQVTVSSLE [chain 1 R33D], ~8 % of WT.
Turning to chain 1 MAEVQLVESGGGLVQPGGSLRLSCAASGYIYRRYRMGWYRQAPGKGREFVAAISGFSSTNYADSVKGRFTISRDNSKNTVYLQMNSLRAEDTAVYYCAAYRIVSDPRVYWGQGTQVTVSSLE [chain 1 G56F], the percent of parent was ~54 % of WT.
The value for chain 1 MAEVQLVESGGGLVQPGGSLRLSCAASGYIYRRYRMGWYRQAPGKGREFVAAISGGSSTNYADSVKGRFTISRDNSKNTVYLQMNSLRAEDTAVYYCAADRIVSDPRVYWGQGTQVTVSSLE [chain 1 Y100D] was ~12 % of WT; that for chain 1 MAEVQLVESGGGLVQPGGSLRLSCAASGYIYRRYRMGWYRQAPGKGREFVAAISGGSSTNYADSVKGRFTISRDNSKNTVYLQMNSLRAEDTAVYYCAAYDIVSDPRVYWGQGTQVTVSSLE [chain 1 R101D] was ~17 % of WT.
On to chain 1 MAEVQLVESGGGLVQPGGSLRLSCAASGYIYRRYRMGWYRQAPGKGREFVAAISGGSSTNYADSVKGRFTISRDNSKNTVYLQMNSLRAEDTAVYYCWAYRIVSDPRVYWGQGTQVTVSSLE [chain 1 A98W], for which the percent of parent is ~22 % of WT.

Source of the values: PMC9729196, “An in silico method to assess antibody fragment polyreactivity” (Nature Communications, 2022).
